Measured values reported in publication PMC9850920.

Molecular target: T1, METTL16-His6 (full length) (Homo sapiens, UniProt Q86W50)
T1 sequence: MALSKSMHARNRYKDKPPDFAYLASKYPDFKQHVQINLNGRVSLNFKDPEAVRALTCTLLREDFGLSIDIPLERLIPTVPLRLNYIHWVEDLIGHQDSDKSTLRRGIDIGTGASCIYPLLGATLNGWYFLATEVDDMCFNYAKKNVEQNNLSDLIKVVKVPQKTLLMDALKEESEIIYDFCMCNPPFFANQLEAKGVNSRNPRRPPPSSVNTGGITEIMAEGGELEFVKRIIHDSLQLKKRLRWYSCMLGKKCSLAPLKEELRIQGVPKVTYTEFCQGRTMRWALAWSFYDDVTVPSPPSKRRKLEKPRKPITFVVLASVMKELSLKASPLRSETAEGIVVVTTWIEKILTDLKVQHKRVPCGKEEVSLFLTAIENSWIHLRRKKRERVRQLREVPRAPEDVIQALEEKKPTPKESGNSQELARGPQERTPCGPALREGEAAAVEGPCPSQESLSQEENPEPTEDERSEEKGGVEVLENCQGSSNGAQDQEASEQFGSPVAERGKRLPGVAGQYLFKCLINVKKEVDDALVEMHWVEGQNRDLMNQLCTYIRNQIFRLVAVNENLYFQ
Assay: MST

B1: MALAT1 triple helix (structured_RNA)
RNA: GGAAGGUUUUUCUUUUCCUGAGAAAACAACACGUAUUGUUUUCUCAGGUUUUGCUUUUUGGCCUUUUUCUAGCUUAAAAAAAAAAAAAGCAAAA
Kd: 31 ± 3 nM
